Target: FMRP RGG box (UniProt Q06787 527-554)
Assay: EMSA

GGGUACGGGAGGGUAAGGCUGUGGGUCGCGUG (structured_RNA) [NR2B mRNA (32 nt)]
binding result: binds

— PMC4643373
